Data on one molecule can be found in US20060172374A1 (Novartis, published 2006).

Experiment [1] concerns the target T1, HA-tagged NDR1 wild type (human, UniProt Q15208 1-465).
T1 construct: also called HA-NDR1; HA-NDR
Description: co-immunoprecipitation, summary of Example 8.

For experiment [2], the target named is T2, HA-NDR1 T74A (human, UniProt Q15208 1-465).
T2 construct: pCMV5_HA-NDR1 mutant expressed in COS-1 cells; also called T74A mutant
Description: co-immunoprecipitation of myc-hMOB1 with HA-NDR, OA-treated COS-1 cells.

In experiment [3] the target is T3, HA-NDR N-terminal point mutant, tyrosine 31 to alanine (human, UniProt Q15208 1-465).
T3 construct: also called tyrosine 31 mutant
T3 sequence (Q15208 other isoform, or with tags, fused parts or gaps mutant limits assumed): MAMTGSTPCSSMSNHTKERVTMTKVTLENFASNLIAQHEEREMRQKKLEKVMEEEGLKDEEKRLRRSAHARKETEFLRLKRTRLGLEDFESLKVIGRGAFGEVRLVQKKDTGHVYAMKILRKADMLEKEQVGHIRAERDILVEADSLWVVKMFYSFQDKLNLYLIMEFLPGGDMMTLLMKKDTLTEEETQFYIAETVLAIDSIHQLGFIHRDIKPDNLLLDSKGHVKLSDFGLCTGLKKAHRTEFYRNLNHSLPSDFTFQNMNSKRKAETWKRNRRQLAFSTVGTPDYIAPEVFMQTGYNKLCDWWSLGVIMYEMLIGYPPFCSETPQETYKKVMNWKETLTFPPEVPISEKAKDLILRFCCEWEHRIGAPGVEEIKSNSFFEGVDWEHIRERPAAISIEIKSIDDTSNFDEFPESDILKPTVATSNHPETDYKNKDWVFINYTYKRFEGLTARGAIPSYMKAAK
As to the kind of experiment: co-immunoprecipitation of myc-hMOB1 with HA-NDR point mutants, OA-treated COS1 cells.

Experiment [4] deals with T4, HA-NDR N-terminal point mutant, arginine 41 to alanine (human, UniProt Q15208 1-465).
T4 construct: also called arginine 41 mutant
T4 sequence (Q15208 other isoform, or with tags, fused parts or gaps mutant limits assumed): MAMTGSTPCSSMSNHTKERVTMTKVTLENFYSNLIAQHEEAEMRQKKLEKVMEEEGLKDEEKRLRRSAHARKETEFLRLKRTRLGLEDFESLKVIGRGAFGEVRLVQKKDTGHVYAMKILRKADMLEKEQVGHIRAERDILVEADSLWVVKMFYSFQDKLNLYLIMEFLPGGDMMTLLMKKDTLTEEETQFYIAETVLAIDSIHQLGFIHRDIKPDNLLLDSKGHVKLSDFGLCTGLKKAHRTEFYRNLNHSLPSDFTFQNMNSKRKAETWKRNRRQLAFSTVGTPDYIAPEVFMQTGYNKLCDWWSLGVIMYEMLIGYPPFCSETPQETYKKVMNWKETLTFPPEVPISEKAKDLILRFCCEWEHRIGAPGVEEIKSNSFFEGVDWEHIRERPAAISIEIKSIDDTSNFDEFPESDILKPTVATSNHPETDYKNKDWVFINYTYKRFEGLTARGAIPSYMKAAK
The experiment is described as above.

In experiment [5] the target is T5, HA-NDR N-terminal point mutant, arginine 78 to alanine (human, UniProt Q15208 1-465).
T5 construct: also called arginine 78 mutant
T5 sequence (Q15208 other isoform, or with tags, fused parts or gaps mutant limits assumed): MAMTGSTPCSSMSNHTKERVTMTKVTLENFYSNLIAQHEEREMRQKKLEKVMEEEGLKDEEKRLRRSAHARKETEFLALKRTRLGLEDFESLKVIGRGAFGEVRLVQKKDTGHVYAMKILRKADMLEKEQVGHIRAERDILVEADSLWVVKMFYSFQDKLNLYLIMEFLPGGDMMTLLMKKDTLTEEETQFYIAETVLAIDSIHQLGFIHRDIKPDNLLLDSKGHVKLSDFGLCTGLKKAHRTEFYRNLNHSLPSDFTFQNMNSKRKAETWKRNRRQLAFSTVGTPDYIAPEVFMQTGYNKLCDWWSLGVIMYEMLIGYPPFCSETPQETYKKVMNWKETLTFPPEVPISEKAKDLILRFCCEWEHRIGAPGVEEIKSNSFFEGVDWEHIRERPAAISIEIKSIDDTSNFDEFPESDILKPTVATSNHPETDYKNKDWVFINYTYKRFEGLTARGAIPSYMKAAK
Described as above.

T1 sequence (Q15208 whole entry): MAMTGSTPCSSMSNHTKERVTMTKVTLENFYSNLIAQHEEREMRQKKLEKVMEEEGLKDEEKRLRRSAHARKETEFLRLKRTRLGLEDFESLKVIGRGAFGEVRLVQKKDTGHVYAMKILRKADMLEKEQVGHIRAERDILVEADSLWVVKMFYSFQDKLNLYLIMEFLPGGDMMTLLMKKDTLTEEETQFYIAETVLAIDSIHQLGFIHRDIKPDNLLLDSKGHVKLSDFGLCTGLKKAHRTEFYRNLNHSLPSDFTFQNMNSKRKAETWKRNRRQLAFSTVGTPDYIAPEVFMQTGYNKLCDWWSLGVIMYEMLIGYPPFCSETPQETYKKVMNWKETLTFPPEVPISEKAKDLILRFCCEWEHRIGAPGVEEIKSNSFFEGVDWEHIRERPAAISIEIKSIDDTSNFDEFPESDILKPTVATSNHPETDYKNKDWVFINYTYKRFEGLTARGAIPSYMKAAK
T2 sequence (Q15208 whole entry T74A): as the sequence (Q15208 whole entry) above, with T74A counted along it

B1: myc-tagged hMOB1 (other, not shown: small tags and cut ends)
chain: MSFLFSSRSSKTFKPKKNIPEGSHQYELLKHAEATLGSGNLRQAVMLPEGEDLNEWIAVNTVDFFNQINMLYGTITEFCTEASCPVMSAGPRYEYHWADGTNIKKPIKCSAPKYIDYLMTWVQDQLDDETLFPSKIGVPFPKNFMSVAKTILKRLFRVYAHIYHQHFDSVMQLQEEAHLNTSFKHFIFFVQEFNLIDRRELAPLQELIEKLGSKDR
modifications: okadaic acid induced modification of MOB1 (not identified) in cells treated with okadaic acid
notes: also called myc-hMOB1; myc-mob1
Take B1: the binding result in experiment [1] is “binds”; in experiment [2], “no binding”; in experiment [3], “no binding”; in experiment [4] it was “no binding”; in experiment [5], “no binding”.
